B1: ZNF263 (parent)
chain: LLRHQRIHTGERPYKCPECGKSFS

Variants of: B1
Assay: protein stability index of a GFP-peptide fusion (GPS, HEK-293T) (PSI 1-6); higher = more stable
Details: c terminus: a fixed tail appended
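Note: lentivirally expressed fusions sorted by FACS into six bins by GFP to DsRed ratio, PSI derived from sequencing read proportions per bin multiplied by bin number.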

Row | Variant | protein stability index
1 | LLRHQRIHTQERPYKCPECGKSFS [G10Q] | 2.86
2 | LLRHQRIHYGERPYKCPECGKSFS [T9Y] | 2.56
3 | LLRHQRIHTGERPYKCPEVGKSFS [C19V] | 3.08
4 | LLRHQRIHTGERPYKCPEDGKSFS [C19D] | 3.28
5 | LLRHQRIHTGERPYKCPEGGKSFS [C19G] | 3.3
6 | LLRHQRIHTGERPYKCPEIGKSFS [C19I] | 1.81
7 | LLRHQRIHTGERPYKCPEEGKSFS [C19E] | 3.31
8 | LLRHQRIHTGERPYKCPELGKSFS [C19L] | 2.15
9 | LLRHQRIHTGERPYKCPETGKSFS [C19T] | 3.42
10 | LLRHQRIHTGERPYKCPEFGKSFS [C19F] | 2.12
11 | LLRHQRIHTGERPYKCPERGKSFS [C19R] | 3.57
12 | LLRHQRIHTGERPYKCPEHGKSFS [C19H] | 3.21
13 | LLRHQRIHTGERPYKCPEPGKSFS [C19P] | 2.87
14 | LLRHQRIHTGERPYKCPEQGKSFS [C19Q] | 3.3
15 | LLRHQRIHTGERPYKCPEKGKSFS [C19K] | 3.08
16 | LLRHQRIHTGERPYKCPEAGKSFS [C19A] | 3.18
17 | LLRHQRIHTGERPYKCPESGKSFS [C19S] | 2.45
18 | LLRHQRIHTGERPYKCPEMGKSFS [C19M] | 2.07
19 | LLRHQRIHTGERPYKCPGCGKSFS [E18G] | 2.3
20 | LLRHQRIHTGERPYKCPPCGKSFS [E18P] | 2.37
21 | LLRHQRIHTGERPYKCPQCGKSFS [E18Q] | 2.41
22 | LLRHQRIHTGERPYKCPVCGKSFS [E18V] | 2.15
23 | LLRHQRIHTGERPYKCPCCGKSFS [E18C] | 1.86
24 | LLRHQRIHTGERPYKCPICGKSFS [E18I] | 2.42

Row | Variant | protein stability index
25 | LLRHQRIHTGERPYKCPACGKSFS [E18A] | 2.25
26 | LLRHQRIHTGERPYKCPDCGKSFS [E18D] | 1.96
27 | LLRHQRIHTGERPYKCPSCGKSFS [E18S] | 2.25
28 | LLRHQRIHTGERPYKCPLCGKSFS [E18L] | 2.24
29 | LLRHQRIHTGERPYKCPWCGKSFS [E18W] | 3.24
30 | LLRHQRIHTGERPYKCPTCGKSFS [E18T] | 2.25
31 | LLRHQRIHTGERPYKCPFCGKSFS [E18F] | 2.48
32 | LLRHQRIHTGERPYKCPKCGKSFS [E18K] | 2.64
33 | LLRHQRIHTGERPYKCPRCGKSFS [E18R] | 2.41
34 | LLRHQRIHTGERPYKCPYCGKSFS [E18Y] | 3.02
35 | LLRHQRIHTGERPYKCPNCGKSFS [E18N] | 2.24
36 | LLRHQRIHTGERPYKCPHCGKSFS [E18H] | 2.5
37 | LLRHQRIHTGERPYKCPMCGKSFS [E18M] | 2.46
38 | LLRHQRIHTGERPYKQPECGKSFS [C16Q] | 3.2
39 | LLRHQRIHTGERPYKVPECGKSFS [C16V] | 2.16
40 | LLRHQRIHTGERPYKYPECGKSFS [C16Y] | 2.12
41 | LLRHQRIHTGERPYKTPECGKSFS [C16T] | 3.4
42 | LLRHQRIHTGERPYKLPECGKSFS [C16L] | 2.38
43 | LLRHQRIHTGERPYKGPECGKSFS [C16G] | 3.9
44 | LLRHQRIHTGERPYKDPECGKSFS [C16D] | 3.46
45 | LLRHQRIHTGERPYKNPECGKSFS [C16N] | 2.76
46 | LLRHQRIHTGERPYKFPECGKSFS [C16F] | 2.48
47 | LLRHQRIHTGERPYKMPECGKSFS [C16M] | 2.36
48 | LLRHQRIHTGERPYKSPECGKSFS [C16S] | 2.73

Row | Variant | protein stability index
49 | LLRHQRIHTGERPYKKPECGKSFS [C16K] | 3.44
50 | LLRHQRIHTGERPYKEPECGKSFS [C16E] | 3.33
51 | LLRHQRIHTGERPYKWPECGKSFS [C16W] | 3.15
52 | LLRHQRIHTGERPYKAPECGKSFS [C16A] | 3.17
53 | LLRHQRIHTGERPYKPPECGKSFS [C16P] | 3.06
54 | LLRHQRIHTGERPYKHPECGKSFS [C16H] | 3.04
55 | LLRHQRIHTGERPYKRPECGKSFS [C16R] | 3.74
56 | LLRHQRIHTGERPYKIPECGKSFS [C16I] | 2.77
57 | LLRHQRIHTGERPGKCPECGKSFS [Y14G] | 2.34
58 | LLRHQRIHTGERPPKCPECGKSFS [Y14P] | 2.09
59 | LLRHQRIHTGERPTKCPECGKSFS [Y14T] | 2.25
60 | LLRHQRIHTGERPHKCPECGKSFS [Y14H] | 2.13
61 | LLRHQRIHTGERPIKCPECGKSFS [Y14I] | 2.23
62 | LLRHQRIHTGERPQKCPECGKSFS [Y14Q] | 2.11
63 | LLRHQRIHTGERPMKCPECGKSFS [Y14M] | 2.42
64 | LLRHQRIHTGERPVKCPECGKSFS [Y14V] | 2.38
65 | LLRHQRIHTGERPWKCPECGKSFS [Y14W] | 2.35
66 | LLRHQRIHTGERPCKCPECGKSFS [Y14C] | 3.63
67 | LLRHQRIHTGERPLKCPECGKSFS [Y14L] | 2.48
68 | LLRHQRIHTGERPSKCPECGKSFS [Y14S] | 1.95
69 | LLRHQRIHTGERPAKCPECGKSFS [Y14A] | 2.74
70 | LLRHQRIHTGERPEKCPECGKSFS [Y14E] | 2.85
71 | LLRHQRIHTGERPDKCPECGKSFS [Y14D] | 2.24
72 | LLRHQRIHTGERPKKCPECGKSFS [Y14K] | 1.59

Row | Variant | protein stability index
73 | LLRHQRIHTGERPNKCPECGKSFS [Y14N] | 2.39
74 | LLRHQRIHTGERPRKCPECGKSFS [Y14R] | 1.94
75 | LLRHQRIHTGERPFKCPECGKSFS [Y14F] | 2.64
76 | LLRHQRIHTGERPYKCSECGKSFS [P17S] | 1.66
77 | LLRHQRIHTGERPYKCYECGKSFS [P17Y] | 1.39
78 | LLRHQRIHTGERPYKCLECGKSFS [P17L] | 1.91
79 | LLRHQRIHTGERPYKCKECGKSFS [P17K] | 2.15
80 | LLRHQRIHTGERPYKCAECGKSFS [P17A] | 1.83
81 | LLRHQRIHTGERPYKCIECGKSFS [P17I] | 2.6
82 | LLRHQRIHTGERPYKCNECGKSFS [P17N] | 2.39
83 | LLRHQRIHTGERPYKCMECGKSFS [P17M] | 1.83
84 | LLRHQRIHTGERPYKCTECGKSFS [P17T] | 2.38
85 | LLRHQRIHTGERPYKCCECGKSFS [P17C] | 2
86 | LLRHQRIHTGERPYKCEECGKSFS [P17E] | 2.26
87 | LLRHQRIHTGERPYKCVECGKSFS [P17V] | 2.05
88 | LLRHQRIHTGERPYKCDECGKSFS [P17D] | 2.19
89 | LLRHQRIHTGERPYKCFECGKSFS [P17F] | 1.94
90 | LLRHQRIHTGERPYKCRECGKSFS [P17R] | 2.6
91 | LLRHQRIHTGERPYKCWECGKSFS [P17W] | 1.74
92 | LLRHQRIHTGERPYKCHECGKSFS [P17H] | 1.8
93 | LLRHQRIHTGERPYKCQECGKSFS [P17Q] | 2.78
94 | LLRHQRIHTGERPYKCGECGKSFS [P17G] | 2.88
